The values below come from patent US6699677 (CHEMOCENTRYX, dated 2004).

Assay [1] deals with T1, human CCR10 (CCX CKR) with N-terminal FLAG epitope, stably expressed on HEK293 cells (human, UniProt Q9NPB9 1-350).
T1 construct: also called HEK293-CCR10 cells; CCR10-expressing cells
T1 sequence: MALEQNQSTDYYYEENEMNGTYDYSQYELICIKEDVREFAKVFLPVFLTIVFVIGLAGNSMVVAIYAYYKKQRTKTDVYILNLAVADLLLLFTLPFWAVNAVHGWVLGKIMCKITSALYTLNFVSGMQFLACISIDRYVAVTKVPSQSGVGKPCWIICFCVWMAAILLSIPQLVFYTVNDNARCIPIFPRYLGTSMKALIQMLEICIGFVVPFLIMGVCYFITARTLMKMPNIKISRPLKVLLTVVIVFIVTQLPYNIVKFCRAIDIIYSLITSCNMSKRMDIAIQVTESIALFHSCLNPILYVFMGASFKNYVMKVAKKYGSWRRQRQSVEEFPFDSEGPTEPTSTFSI
Nature of the assay: homologous competition, radiolabeled ELC with increasing unlabeled ELC on cells.

For assay [2], the target named is T2, CCR1 on transfected mouse myeloma NSO cells (UniProt P32246 1-355, limits assumed).
T2 construct: whole, on cells; also called CCR1-NSO
T2 sequence (looked up): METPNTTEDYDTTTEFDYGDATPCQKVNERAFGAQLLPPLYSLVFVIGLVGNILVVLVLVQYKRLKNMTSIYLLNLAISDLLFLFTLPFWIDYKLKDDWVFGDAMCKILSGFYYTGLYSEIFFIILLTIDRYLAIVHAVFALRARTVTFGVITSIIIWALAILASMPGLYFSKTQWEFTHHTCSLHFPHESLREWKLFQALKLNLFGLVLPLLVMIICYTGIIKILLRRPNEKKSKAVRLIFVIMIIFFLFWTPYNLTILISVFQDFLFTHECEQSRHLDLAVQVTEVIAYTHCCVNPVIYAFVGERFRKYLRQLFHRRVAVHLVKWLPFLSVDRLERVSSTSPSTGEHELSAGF
Nature of the assay: adhesion of receptor-expressing NSO cells to immobilized stalkokine.

The target in assay [3] is T3, CCR4 on transfected mouse myeloma NSO cells (UniProt P51679 1-360, limits assumed).
T3 construct: whole, on cells; also called CCR4-NSO; CCR4 NSO cells
T3 sequence (looked up): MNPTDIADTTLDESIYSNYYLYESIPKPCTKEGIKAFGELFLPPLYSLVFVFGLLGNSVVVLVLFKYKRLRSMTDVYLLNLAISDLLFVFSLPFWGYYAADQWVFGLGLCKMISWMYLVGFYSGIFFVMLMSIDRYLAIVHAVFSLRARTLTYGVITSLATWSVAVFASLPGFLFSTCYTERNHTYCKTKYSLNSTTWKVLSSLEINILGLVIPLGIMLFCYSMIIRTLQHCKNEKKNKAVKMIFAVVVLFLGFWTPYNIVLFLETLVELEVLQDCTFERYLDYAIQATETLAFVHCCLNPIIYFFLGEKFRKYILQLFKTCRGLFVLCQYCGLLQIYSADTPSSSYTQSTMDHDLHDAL
The description is as above.

The target of assay [4] is T4, CCR4 on CEM cells (UniProt P51679 1-360, limits assumed).
T4 construct: whole, on cells; also called CEM cells expressing CCR4; CEM cells that express CCR4
T4 sequence (looked up): T3 sequence (looked up)
Nature of the assay: displacement of radiolabeled MDC or TARC from CEM cells expressing CCR4 by stalkokine supernatant.

The target in assay [5] is T4, CCR4 on CEM cells. Nature of the assay: displacement of radiolabeled MDC or TARC from CEM cells expressing CCR4 by soluble MDC.
In assay [6] the target is T3, CCR4 on transfected mouse myeloma NSO …. Nature of the assay: preincubation of CCR4-NSO cells with 10 ug/ml soluble chemokine, then adhesion to immobilized MDC-FRAC or TARC-FRAC.
For assay [7], the target named is T5, CCR7 on transfected mouse myeloma NSO cells (UniProt P32248 25-378, limits assumed).
T5 construct: whole, on cells; also called CCR7-NSO
T5 sequence (looked up): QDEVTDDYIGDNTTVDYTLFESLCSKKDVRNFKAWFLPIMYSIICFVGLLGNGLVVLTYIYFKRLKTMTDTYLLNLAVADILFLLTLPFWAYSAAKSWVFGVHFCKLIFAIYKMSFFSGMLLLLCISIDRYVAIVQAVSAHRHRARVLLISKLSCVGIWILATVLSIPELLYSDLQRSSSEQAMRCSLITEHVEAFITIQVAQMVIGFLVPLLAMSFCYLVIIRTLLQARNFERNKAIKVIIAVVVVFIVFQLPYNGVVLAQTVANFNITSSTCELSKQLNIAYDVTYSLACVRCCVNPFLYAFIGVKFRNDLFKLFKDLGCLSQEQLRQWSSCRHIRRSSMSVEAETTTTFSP
Nature of the assay: adhesion of receptor-expressing NSO cells to immobilized stalkokine.

Assay [8] concerns the target T6, CCR8 on transfected mouse myeloma NSO cells (UniProt P51685 1-355, limits assumed).
T6 construct: whole, on cells; also called CCR8-NSO
The description is as above.

Assay [9] deals with T1, human CCR10 (CCX CKR) with N-terminal …. Nature of the assay: homologous competition, radiolabeled TECK with cold TECK on cells.
The target is the same in assay [10]. Nature of the assay: adhesion of HEK293-CCR10 cells to stalkokine immobilized via anti-His antibody on chamber slides.
For assay [11] the target is unchanged. Nature of the assay: summary of Example 1; assay for this ligand not described.

T6 sequence (P51685 whole entry): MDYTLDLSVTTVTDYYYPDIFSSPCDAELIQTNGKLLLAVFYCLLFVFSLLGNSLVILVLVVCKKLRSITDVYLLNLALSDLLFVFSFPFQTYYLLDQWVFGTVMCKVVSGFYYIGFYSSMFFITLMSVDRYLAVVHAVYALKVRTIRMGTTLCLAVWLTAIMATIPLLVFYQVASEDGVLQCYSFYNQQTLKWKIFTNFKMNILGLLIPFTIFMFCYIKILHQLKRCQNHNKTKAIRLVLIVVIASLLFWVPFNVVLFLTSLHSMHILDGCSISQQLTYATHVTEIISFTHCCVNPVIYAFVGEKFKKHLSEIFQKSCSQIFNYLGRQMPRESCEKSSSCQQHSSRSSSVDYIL

B1: ELC, soluble recombinant native form chemokine (ligand, UniProt Q99731 22-98, looked up)
chain: GTNDAEDCCLSVTQKPIPGYIVRNFHYLLIKDGCRVPAVVFTTLRGRQLCAPPDQPWVERIIQRLQRTSAKMKRRSS
notes: mature; also called soluble ELC; soluble native ELC
Take B1: the binding result in assay [1] is on record as “binds”.

B2: MCP3-FRAC (MCP3 stalkokine) (ligand)
chain: not shown
notes: mature; also called MCP3 (stalkokine form); MCP3 tethered ligand; not shown: polylinker residues
Take B2: the binding result in assay [2] is “binds”.

B3: TARC-FRAC (stalkokine with a fractalkine stalk and a TARC ligand domain) (ligand, human, not shown: small tags and cut ends)
chain: ARGTNVGRECCLEYFKGAIPLRKLKTWYQTSEDCSRDAIVFVTVQGRAICSDPNNKRVKNAVKYLQSLERSEFGGTFEKQIGEVKPRTTPAAGGMDESVVLEPEATGESSSLEPTPSSQEAQRALGTSPELPTGVTGSSGTRLPPTPKAQDGGPVGTELFRVPPVSTAATWQSSAPHQPGPSLWAEAKTSEAPSTQDPSTQASTASSPAPEENAPSEGQRVWGQGQSPRPENSLEREEMGPVPAHTDAFQDWGPGSMAHVSVVPVSSEGTPSREPVASGSWTPKAEEPIHATMDPQRLGVLITPVPDAQA
notes: mature; Used as cell supernatant, soluble (displacement, calcium flux) or immobilized through anti-His antibody (adhesion); also called TARC-SK; TARC-Stalkokine
B3: the binding result in assay [3] and in [4] was “binds” each time.

B4: MDC-FRAC (stalkokine with a fractalkine stalk and an MDC ligand domain) (ligand, human, not shown: small tags and cut ends)
chain: GPYGANMEDSVCCRDYVRYRLPLRVVKHFYWTSDSCPRPGVVLLTFRDKEICADPRVPWVKMILNKLSQEFGGTFEKQIGEVKPRTTPAAGGMDESVVLEPEATGESSSLEPTPSSQEAQRALGTSPELPTGVTGSSGTRLPPTPKAQDGGPVGTELFRVPPVSTAATWQSSAPHQPGPSLWAEAKTSEAPSTQDPSTQASTASSPAPEENAPSEGQRVWGQGQSPRPENSLEREEMGPVPAHTDAFQDWGPGSMAHVSVVPVSSEGTPSREPVASGSWTPKAEEPIHATMDPQRLGVLITPVPDAQA
notes: mature; Used as cell supernatant, soluble (displacement, calcium flux) or immobilized through anti-His antibody (adhesion); also called MDC-SK; MDC-Stalkokine
In the case of B4, the binding result in [3] and in [4] was “binds” in each case.

B5: MDC, soluble chemokine (ligand, human, UniProt O00626 25-93, looked up)
chain: GPYGANMEDSVCCRDYVRYRLPLRVVKHFYWTSDSCPRPGVVLLTFRDKEICADPRVPWVKMILNKLSQ
notes: Also used radiolabeled as tracer on CEM cells; also called MDC-CK; soluble MDC
With B5, the binding result in assay [5] and in assay [6] was “binds” in each case.

B6: SLC-FRAC (SLC stalkokine) (ligand, human, not shown: small tags and cut ends)
chain: SDGGAQDCCLKYSQRKIPAKVVRSYRKQEPSLGCSIPAILFLPRKRSQAELCADPKELWVQQLMQHLDKTPSPQKPAQGCRKDRGASKTGKKGKGSKGCKRTERSQTPKGPEFGGTFEKQIGEVKPRTTPAAGGMDESVVLEPEATGESSSLEPTPSSQEAQRALGTSPELPTGVTGSSGTRLPPTPKAQDGGPVGTELFRVPPVSTAATWQSSAPHQPGPSLWAEAKTSEAPSTQDPSTQASTASSPAPEENAPSEGQRVWGQGQSPRPENSLEREEMGPVPAHTDAFQDWGPGSMAHVSVVPVSSEGTPSREPVASGSWTPKAEEPIHATMDPQRLGVLITPVPDAQA
notes: mature; also called SLC (stalkokine form); 6Ckine
For the molecule B6, the binding result in [7] is listed as “no binding”.

B7: I309-FRAC (I309 stalkokine) (ligand, human, not shown: small tags and cut ends)
chain: KSMQVPFSRCCFSFAEQEIPLRAILCYRNTSSICSNEGLIFKLKRGKEACALDTVGWVQRHRKMLRHCPSKRKEFGGTFEKQIGEVKPRTTPAAGGMDESVVLEPEATGESSSLEPTPSSQEAQRALGTSPELPTGVTGSSGTRLPPTPKAQDGGPVGTELFRVPPVSTAATWQSSAPHQPGPSLWAEAKTSEAPSTQDPSTQASTASSPAPEENAPSEGQRVWGQGQSPRPENSLEREEMGPVPAHTDAFQDWGPGSMAHVSVVPVSSEGTPSREPVASGSWTPKAEEPIHATMDPQRLGVLITPVPDAQA
notes: mature; also called I309 (stalkokine form); 1309-FRAC
Regarding B7, in assay [8], the binding result is “binds”.

B8: TECK, soluble recombinant native form chemokine (ligand, UniProt O15444 24-150, looked up)
chain: QGVFEDCCLAYHYPIGWAVLRRAWTYRIQEVSGSCNLPAAIFYLPKRHRKVCGNPKSREVQRAMKLLDARNKVFAKLHHNTQTFQAGPHAVKKLSSGNSKLSSSKFSNPISSSKRNVSLLISANSGL
notes: mature; Tracer was 125I-labeled TECK from Amersham; also called soluble TECK; cold TECK
On to B8, for which, in assay [9], the binding result was “binds”.

B9: ELC-stalkokine (ELC ligand domain, human fractalkine mucin stalk, myc epitope and poly-histidine) (ligand, not shown: small tags and cut ends)
chain: GTNDAEDCCLSVTQKPIPGYIVRNFHYLLIKDGCRVPAVVFTTLRGRQLCAPPDQPWVERIIQRLQRTSAKMKRRSSEFGGTFEKQIGEVKPRTTPAAGGMDESVVLEPEATGESSSLEPTPSSQEAQRALGTSPELPTGVTGSSGTRLPPTPKAQDGGPVGTELFRVPPVSTAATWQSSAPHQPGPSLWAEAKTSEAPSTQDPSTQASTASSPAPEENAPSEGQRVWGQGQSPRPENSLEREEMGPVPAHTDAFQDWGPGSMAHVSVVPVSSEGTPSREPVASGSWTPKAEEPIHATMDPQRLGVLITPVPDAQA
notes: mature; also called ELC-SK; ELC-FRAC
Regarding B9, the binding result in assay [10] and in [7] was “binds” throughout.

B10: vMIPII (ligand)
chain: GDTLGASWHRPDKCCLGYQKRPLPQVLLSSWYPTSQLCSKPGVIFLTKRGRQVCADKSKDWVKKLMQQLPVTAR
Turning to B10, the binding result in [11] is reported as “binds”.

B11: TARC, soluble chemokine (ligand, human, UniProt Q92583 24-94, looked up)
chain: ARGTNVGRECCLEYFKGAIPLRKLKTWYQTSEDCSRDAIVFVTVQGRAICSDPNNKRVKNAVKYLQSLERS
notes: Also used radiolabeled as tracer on CEM cells; also called soluble TARC; radiolabeled TARC
On to B11, for which the binding result in assay [6] is given as “binds”.
